Test results taken from patent US20180016324A1 (Regeneron, published 2018).

What was measured:
[1] = biological target: T1, ZIKV (prM80E) with a C-terminal myc-myc-hexahistidine tag (Zika virus, UniProt A0A024B7W1 104-694); test: SPR, mAb captured, 37C, pH 7.4
T1 construct: also called ZIKV (prM80E)-mmH; ZIKV-mmH

[2] = biological target: T1, ZIKV (prM80E) with a C-terminal …; test: SPR, mAb captured, 37C
[3] = biological target: T2, ZIKV prM/E polyprotein on virus-like particles (VLPs) from HEK293T/17 cells (Zika virus, UniProt A0A024B7W1 123-795); test: MSD ECL, VLPs on plate
T2 construct: also called ZIKV prM/E VLPs; Zika prM/E VLPs

[4] = biological target: T1, ZIKV (prM80E) with a C-terminal …; test: SPR, mAb captured, 37C, pH 5.5 chase
[5] = biological target: T1, ZIKV (prM80E) with a C-terminal …; test: SPR, mAb captured, 25C
[6] = biological target: T1, ZIKV (prM80E) with a C-terminal …; test: SPR, mAb captured, 37C, pH 6.0 chase
[7] = biological target: ZIKV envelope glycoprotein (E) of strain PRVABC59 (Puerto Rico 2015) (Zika virus); test: cell-based or functional assay
[8] = biological target: ZIKV envelope glycoprotein (E) of strain MR766 (Uganda 1947) (Zika virus, UniProt Q32ZE1 291-790); test: cell-based or functional assay
[9] = biological target: ZIKV envelope glycoprotein (E) of strain FLR (Colombia 2015) (Zika virus); test: cell-based or functional assay
[10] = biological target: T1, ZIKV (prM80E) with a C-terminal …; test: SPR, mAb captured, 37C, pH 5.0 chase
[11] = biological target: T1, ZIKV (prM80E) with a C-terminal …; test: SPR, mAb captured, 37C; remark: listed apart in the source
[12] = biological target: T1, ZIKV (prM80E) with a C-terminal …; test: SPR, mAb captured, 37C; remark: listed apart in the source

Row | Binder | koff [1] [s⁻¹] | t½ [1] [min] | t½ pH 7.4/t½ pH 6.0 [2] | EC50 [3] [nM] | koff [4] [s⁻¹] | t½ [4] [min] | Kd [5] [nM] | koff [5] [s⁻¹] | kon [5] [M⁻¹ s⁻¹] | t½ [5] [min] | koff [6] [s⁻¹] | t½ [6] [min] | neutralization IC50, Vero cells [7] [nM] | neutralization IC50, Vero cells [8] [nM] | neutralization IC50, Vero cells [9] [nM] | koff [10] [s⁻¹] | Kd [12] [nM] | koff [12] [s⁻¹] | kon [12] [M⁻¹ s⁻¹] | t½ [12] [min] | also measured
1 | H4H25587P (antibody, V domains shown) VH: EVQLVESGGGLVQPGRSLTLSCAASGFTFDDYVMHWVRQAPGKGLEWVSGISWNSDTIDYADSVKGRFTISRDNAKNSLYLQMNSLRAEDTALYYCAKDRRSWYGGYFDYWGQGTLVTVSS VL: DIQMTQSPSSLSASVGDRVTITCRASQGISSYLAWYQQKPGKVPKLLIYAASTLQSGVPSRFSGSGSGTDFSLTISSLQPEDVATYYCQKYNSAPLTFGGGTKVEIK | 0.018 | 0.64 | 0.8 | 0.145 | 0.0174 | 0.66 | 5.13 | 0.00422 | 822000 | 2.7 | 0.0151 | 0.77 | 0.321 | 0.15 | 0.955 | 0.0177 | 13.2 | 0.0145 | 1.1e+06 | 0.8 | t½ [10]: 0.7 min; t½ pH 7.4/t½ pH 5.0 [11]: 1; t½ pH 7.4/t½ pH 5.5 [11]: 1
2 | H4H25591P (antibody, V domains shown) VH: QVQLVESGGGVVQPGRSLRLSCAASGFTFSYSGMHWVRQAPGKGLEWVAVISYDGINKYYADSVKGRFTISRDNSKNTLYLQMNSLRPEDTAVYYCAKDRGGRFDPWGQGTLVTVSS VL: DIQMTQSPSSLSASVGDRVTITCRASQGISNYLAWYQQKPGKVPNLLIYGASTLHSGVPSRFSGSGSGTDFTLTISSLQPADVATYYCQKYNSAPLTFGGGTKVEIK | 0.0063 | 1.83 | 2.2 | 0.102 | 0.0184 | 0.63 | 4.9 | 0.00318 | 649000 | 3.6 | 0.0136 | 0.85 | 0.254 | 0.0343 | 0.33 | 0.0148 | 8.37 | 0.00682 | 816000 | 1.7 | t½ [10]: 0.8 min; t½ pH 7.4/t½ pH 5.0 [11]: 2.4; t½ pH 7.4/t½ pH 5.5 [11]: 2.9
3 | H4H25710N (antibody, V domains shown) VH: EVQLLESGGGLVQPGGSLRLSCAASGFTVSNNYMSWVRQAPGKGLEWVSVIYSGGRTNYGDSVKGRFTISRDNSKNTLYLQMNSLRAEDTAVYYCARENYDFWSGDPYGWDVWGQGTTVTVSS VL: DIQMTQSPSSLSASVGDRVTITCRASQDISNYLAWFQQKPGKAPKSLIYGASSLQRGVPSKFRGSGSGTDFTLTISSLQPEDFASYYCQQYNSYPYTFGQGTKLEIK | 0.00541 | 2.14 | 24 | 0.542 | 0.181 | 0.06 | 6.99 | 0.00209 | 299000 | 5.5 | 0.13 | 0.09 | 1.24 | 0.0471 | 1.06 | 0.339 | 12.4 | 0.0064 | 519000 | 1.8 | t½ [10]: 0.03 min; t½ pH 7.4/t½ pH 5.0 [11]: 62.6; t½ pH 7.4/t½ pH 5.5 [11]: 33.4
4 | H2aM25711N (antibody, V domains shown) VH: EVQLVESGGGLVQPGGSLRLSCAASGFTVSSNYMSWVRQAPGKGLEWVSVIYSGGRTNYGDSVKGRFTISRDNSKNTLYLQMNSLRAEDTAVYYCARENYDFWSGDPYGWDVWGQGTTVTVSS VL: DIQMTQSPSSLSASVGDRVTITCRASQDISNYLAWFQQKPGKAPKSLIYGASSLQRGVPSKFSGSGSGTDFTLTISSLQPEDFATYYCQQYNSYPYTFGQGTKLEIK | – | – | – | 0.468 | – | – | – | – | – | – | – | – | – | – | – | – | – | – | – | – | –
5 | H2aM25709N (antibody, V domains shown) VH: EVQLVESGGGLVQPGGSLRLSCAASGFTVSSNYMSWVRQAPGKGLEWVSVIYSGGRTNYGDSVKGRFTISRDNSKNTLYLQMNSLRAEDTAVYYCARENYDFWSGDPYGWDVWGQGTTVTVSS VL: DIQMTQSPSSLSASVGDRVTITCRASQDISNYLAWFQQKPGKAPKSLIYGASSLQRGVPSKFSGSGSGTDFTLTISSLQPEDFATYYCQQYNSYPYTFGQGTKLEIK | – | – | – | 0.362 | – | – | – | – | – | – | – | – | – | – | – | – | – | – | – | – | –
6 | H4H25626P (antibody, V domains shown) VH: QVQLVESGGGVVQPGRSLRLSCAASGFTFSSYGMHWVRQAPGKGLEWVALIWYDGSDKHYVDSMKGRFTISRDNSKNTLYLQMNSLRADDTAVYYCARQAYYFYYGMDVWGQGTTVTVSS VL: not shown | – | – | – | 1.59 | – | – | 6.17 | 0.000905 | 147000 | 12.8 | – | – | 1.17 | 0.159 | 1.09 | – | 6.18 | 0.00187 | 303000 | 6.2 | –
7 | H4H25633P (antibody, V domains shown) VH: EVQLVESGGGLVQPGRSLRLSCAASGFTFDDYAIHWVRQAPGKGLEWVSGISWNSGYLGYADSVKGRFTISRDNAKNSLYLQMNSLRAEDTAFYYCAKDVAWGSVRHVFEIWGQGTMVTVSS VL: EIVLTQSPGTLSLSPGERATLSCRASQTITGNQLAWYQQKPGQAPRLLIYFTSSRATGIPDRFSGSGSGTDFSLTISRLEPEDFAVYFCQQFGYSPWTFGQGTKVEIK | – | – | – | 0.4 | – | – | 1.95 | 0.000802 | 411000 | 14.4 | – | – | 0.652 | 0.102 | 0.44 | – | 7.39 | 0.00501 | 678000 | 2.3 | –
8 | H4H25708N (antibody, V domains shown) VH: EVQLLESGGDLVQPGGSLRLSCAASGFTFSSYAMSWVRQAPGKGLEWVSAISVSGDSTYYADSVKGRFTISRDNSKNTLYLQMNSLRAEDTAVYYCAKDRGYTWNYYYYGMDVWGQGTTVTVSS VL: not shown | 0.0026 | 4.45 | 0.6 | 133 | 0.00157 | 7.37 | 1.21 | 0.000504 | 417000 | 22.9 | 0.00144 | 8.02 | – | 0.349 | – | 0.00129 | 2.97 | 0.00232 | 781000 | 5 | t½ [10]: 8.9 min; t½ pH 7.4/t½ pH 5.0 [11]: 0.5; t½ pH 7.4/t½ pH 5.5 [11]: 0.6
9 | H4H25630P (antibody, V domains shown) VH: QVQLVQSGAEVKRPGASVKVSCKASDYTFTDYGISWVRQAPGQGLEWMGWFNTYNGNTNYAQKFQGRITMTTDTSTSTAYMELRSLRSDDTAIYYCARDWGLHYFENWGQGTLVTVSS VL: EIVLTQSPGTLSLSPGERATLSCRASQSVRNSYLAWYQQKPGQAPRLLIYGASSRDTGIPDRFSGSGSGTDFTLTISRLEPEDFAVYYCQQYGRSPWTFGQGTKVEIK | – | – | – | 0.217 | – | – | 0.21 | 0.00035 | 1.67e+06 | 33 | – | – | 0.539 | 0.147 | 0.283 | – | 1.16 | 0.00229 | 1.98e+06 | 5.1 | –
10 | H4H25566P (antibody, V domains shown) VH: QVQLQESGPGLVKPSQTLSLTCTVSGGSISSGGYYWSWIRQHPGKGLEWIGYIYYSGSTYYNPSLKSRITISIDTSKNQFSLKLTSVTAADTAVYYCARGQQLLSFDYWGQGTLVTVSS VL: DIQMTQSPSSVSASVGDRVTITCRASQGISRWLAWYQLKPGKPPTPLIYAASSLQSGAPSRFSGRGSGTDFTLTISSLQPEDFATYYCQQANSFPYTFGQGTKLEIK | 0.0542 | 0.21 | 5.5 | 0.82 | 0.392 | 0.03 | 27.7 | 0.0163 | 590000 | 0.7 | 0.299 | 0.04 | – | – | 1.55 | 0.368 | 52.5 | 0.036 | 687000 | 0.3 | t½ [10]: 0.03 min; t½ pH 7.4/t½ pH 5.0 [11]: 6.8; t½ pH 7.4/t½ pH 5.5 [11]: 7.2
